# Results reported in patent US20160032263A1.
# Several values for one entry are separate records, joined by “and”; a condition that tells them apart may be missing. Equal values may be shown once.
# Biological target: histidine-tagged HIV-1 integrase protein (IN) (HIV-1) (UniProt P04585)
# Assay: cell-based or functional assay
row,Substance,inhibition of IN enzymatic activity
1,"Rev 13-23 peptide (Rev-derived peptide, as used in the IN activity assay) (from UniProt P04618 13-23)",60 % inhibition and 70 % inhibition
2,"Rev 53-67 peptide (Rev-derived peptide, as used in the IN activity assay) (from UniProt P04618 53-67)",60 % inhibition and 70 % inhibition
